Reference: the Human Domainome abundance scans (Beltran et al. 2025)

B1: Zinc finger homeobox protein 3, residues 2147 to 2202; numbered along this chain, Q15911 (parent)
chain: RPRTRITDDQLRVLRQYFDINNSPSEEQIKEMADKSGLPQKVIKHWFRNTLFKERQ
B2: DNA topoisomerase 3-alpha, residues 812 to 851; numbered along this chain, Q13472 (parent)
chain: TCNCGQEAVLLTVRKEGPNRGRQFFKCNGGSCNFFLWADS

Variants of: B1
Experiment: abundance fitness (aPCA) (normalised: wild type 0, dead -1); higher = more abundant; growth selection in yeast, the domain comes from the species named
Settings: Homo sapiens

Abundance fitness of substitutions, site by site:
Q56: H -0.5, P -0.261, R 0.166, G -0.419, S -0.57, A 0.09, T -0.298, D -0.844
L51: G -0.073, S 0.015, F -0.214, E -0.116, A -0.037, P -0.224, H 0.016, M 0.047, N -0.014, Y -0.007, R -0.013, C -0.088, W -0.34, T -0.059, I -0.232, V -0.119, K 0.244, Q 0.044
E54: C -0.149, L -0.127, G -0.291, K -0.344, T -0.048, H 0.085, V -0.159, D 0.046, Q 0.04, I 0.235, M -0.107, Y -0.277, P -0.367, S -0.128, R -0.101
N49: W -0.014, R 0.02, A -0.061, H -0.451, F -0.194, L -0.117, Y -0.145, E 0.153, Q -0.075, C 0.082, S -0.06, D 0.001, V -0.053, M -0.093, T -0.039, I -0.236, P -0.65, K 0.06, G -0.124
K41: A -0.056, V -0.108, R -0.142, D -0.054, G 0.108, Q 0.095, L -0.004, Y -0.389, N -0.053, C 0.126, E 0.01, I -0.022, F -0.274, M -0.011, S -0.02, W -0.361, P -0.259
F47: D -0.819, N -0.526, Y -0.273, M -0.242, C -0.169, K -0.774, L -0.211, Q -0.801, S -0.632, P -0.912, R -0.858, A -0.482, I -0.265, W -0.188, H -0.699, V -0.17
T50: I -0.262, Q -0.16, H -0.048, S -0.016, L -0.17, C -0.314, N -0.044, G -0.187, D -0.264, K 0.094, V -0.078, A -0.11, E -0.047, F -0.341, P -0.335, M -0.051, R -0.068
V42: H -0.374, L -0.103, D 0.094, C 0.058, A -0.098, P -0.618, S -0.139, W -0.119, M -0.218, K -0.051, R -0.028, F -0.293, N -0.15, I -0.074, T -0.027, Y -0.18
F52: I -0.296, A 0.074, T 0.181, H -0.189, E -0.015, S -0.029, K 0.185, C 0.01, R 0.148, N 0.069, M 0.101, W -0.161, V 0.05, L 0.026, P -0.059, D -0.098, G 0.09
W46: R -0.812, E -0.348, K -0.738, C -0.524, F -0.163, Q -0.576, Y -0.439, N -0.561, A -0.63, D -0.361, V -0.177, T -0.555, S -0.83, M -0.429, I -0.118, P -0.812
R55: L -0.179, N -0.356, C -0.313, W -0.396, H 0.013, A -0.139, G -0.054, M -0.101, P -0.343, T -0.206, Y -0.195, I -0.096, F -0.146, K -0.175, Q -0.054, E -0.173, D 0.114
Q40: Y 0.088, W -0.068
H45: M 0.029, S 0.028, A 0.039, G 0.007, P -0.377, E 0.106, D 0.109, Q 0.085, F 0.009, W 0.028, V 0.015, L -0.032, I -0.09, Y -0.036, R -0.052, C -0.194, K 0.141
R48: Q 0.008, N 0.102, Y -0.413, S -0.121, M -0.06, C -0.446, P -0.461, I -0.009, G -0.118, T -0.07, F -0.023, W -0.306, E 0.057, A -0.042, H -0.064, K 0.107
I43: G -1, C -0.349, L -0.443, N -0.959, Y -1.08, K -0.945, A -0.534, V -0.015, F -0.864, P -1.05, T -0.54, R -1.21, M -0.706, Q -1, S -0.987, E -0.767, D -1.12
K44: F -0.175, T -0.246, Y -0.354, L -0.03, E -0.146, S -0.214, M -0.2, R -0.069, N -0.334, A -0.096, V -0.107, I -0.102, W -0.176, D -0.08, H -0.131, G -0.11
K53: F -0.195, H -0.07, Q 0.055, P -0.192, N -0.041, D -0.18, M 0.09, V -0.167, R -0.033, I -0.124, W -0.299, S -0.056, Y 0.141, A 0.017, E -0.006, T 0.017, L -0.163, C -0.269

Variants of: B2
Experiment: as above
Settings: Homo sapiens

Abundance fitness: each site, then its substitutions
G5: A -0.437, L -0.666, C -0.484, K -0.263, H -0.419, R -0.467, M -0.267, S -0.377, Q -0.259, V -0.714
T12: P -0.528, Q -0.24, E -0.722, H -0.383, K -0.347, A -0.59, C -0.39
L10: R -0.126, S -0.33, T -0.068, V -0.357, G -0.474, K -0.065, A -0.284, E -0.168
C4: V -1.09, L -1.24, G -1.3, R -0.907
Q6: A 0.229, V -0.338, R 0.038, G -0.182
T1: W -0.858, Q -0.24
L11: C -0.208, T 0.027, G 0.041, W -0.072, V 0.031, Q 0.054, S 0.008, R 0.049, A 0.012
V9: C -0.226, S -0.194, R -0.154, P -0.227, Q -0.04, L 0.12, G -0.355
C2: G -0.601, S -0.593, F -0.827
N3: D -0.006, R -0.539, L -0.32, G -0.739
E7: P -0.023, R -0.18, S -0.233, G -0.221, H -0.142
A8: S -0.369, E -0.644, P 0.309, R -0.543, L -0.238, M -0.172, D -0.903, W -0.367, F -1
